Literature values, collected in patent publication US9956303B2, “Anti-met therapy for previously diagnosed cancer patients” (GE HEALTHCARE LIMITED, priority 2011, dated 2018).

How the values were obtained:
c-Met [1] = target: T1, c-Met (Homo sapiens, UniProt P08581); set-up: host or cells: NSCLC patients' tumours; settings: for median overall-survival: analysed by retrospective IHC of archive biopsy samples, p=0.002
[2] = in vivo
c-Met [3] = target: T1, c-Met; settings: mouse, in vivo
HGF = target: T2, HGF (Homo sapiens, UniProt P14210); settings: combination with ECX
T2 construct: host or cells: patients
T2 sequence (P14210 32-728): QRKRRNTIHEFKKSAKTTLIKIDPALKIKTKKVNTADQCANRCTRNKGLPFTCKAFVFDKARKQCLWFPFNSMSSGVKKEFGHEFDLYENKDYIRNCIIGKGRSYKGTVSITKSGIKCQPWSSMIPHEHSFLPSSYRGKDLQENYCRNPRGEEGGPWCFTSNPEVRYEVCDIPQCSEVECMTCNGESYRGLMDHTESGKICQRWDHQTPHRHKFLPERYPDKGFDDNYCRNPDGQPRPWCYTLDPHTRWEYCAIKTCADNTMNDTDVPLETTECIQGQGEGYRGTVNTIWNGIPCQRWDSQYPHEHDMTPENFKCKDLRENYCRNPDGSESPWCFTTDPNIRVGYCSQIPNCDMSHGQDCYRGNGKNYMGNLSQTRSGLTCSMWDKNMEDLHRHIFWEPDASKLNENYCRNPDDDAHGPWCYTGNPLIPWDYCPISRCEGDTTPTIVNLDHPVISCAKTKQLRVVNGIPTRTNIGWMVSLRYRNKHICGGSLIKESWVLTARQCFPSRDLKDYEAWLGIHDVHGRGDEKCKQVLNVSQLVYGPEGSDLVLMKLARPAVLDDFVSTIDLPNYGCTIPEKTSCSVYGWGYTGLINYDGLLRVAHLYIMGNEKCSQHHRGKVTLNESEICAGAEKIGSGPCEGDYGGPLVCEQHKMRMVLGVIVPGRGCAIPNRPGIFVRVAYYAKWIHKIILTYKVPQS

T1 sequence (P08581 25-1390): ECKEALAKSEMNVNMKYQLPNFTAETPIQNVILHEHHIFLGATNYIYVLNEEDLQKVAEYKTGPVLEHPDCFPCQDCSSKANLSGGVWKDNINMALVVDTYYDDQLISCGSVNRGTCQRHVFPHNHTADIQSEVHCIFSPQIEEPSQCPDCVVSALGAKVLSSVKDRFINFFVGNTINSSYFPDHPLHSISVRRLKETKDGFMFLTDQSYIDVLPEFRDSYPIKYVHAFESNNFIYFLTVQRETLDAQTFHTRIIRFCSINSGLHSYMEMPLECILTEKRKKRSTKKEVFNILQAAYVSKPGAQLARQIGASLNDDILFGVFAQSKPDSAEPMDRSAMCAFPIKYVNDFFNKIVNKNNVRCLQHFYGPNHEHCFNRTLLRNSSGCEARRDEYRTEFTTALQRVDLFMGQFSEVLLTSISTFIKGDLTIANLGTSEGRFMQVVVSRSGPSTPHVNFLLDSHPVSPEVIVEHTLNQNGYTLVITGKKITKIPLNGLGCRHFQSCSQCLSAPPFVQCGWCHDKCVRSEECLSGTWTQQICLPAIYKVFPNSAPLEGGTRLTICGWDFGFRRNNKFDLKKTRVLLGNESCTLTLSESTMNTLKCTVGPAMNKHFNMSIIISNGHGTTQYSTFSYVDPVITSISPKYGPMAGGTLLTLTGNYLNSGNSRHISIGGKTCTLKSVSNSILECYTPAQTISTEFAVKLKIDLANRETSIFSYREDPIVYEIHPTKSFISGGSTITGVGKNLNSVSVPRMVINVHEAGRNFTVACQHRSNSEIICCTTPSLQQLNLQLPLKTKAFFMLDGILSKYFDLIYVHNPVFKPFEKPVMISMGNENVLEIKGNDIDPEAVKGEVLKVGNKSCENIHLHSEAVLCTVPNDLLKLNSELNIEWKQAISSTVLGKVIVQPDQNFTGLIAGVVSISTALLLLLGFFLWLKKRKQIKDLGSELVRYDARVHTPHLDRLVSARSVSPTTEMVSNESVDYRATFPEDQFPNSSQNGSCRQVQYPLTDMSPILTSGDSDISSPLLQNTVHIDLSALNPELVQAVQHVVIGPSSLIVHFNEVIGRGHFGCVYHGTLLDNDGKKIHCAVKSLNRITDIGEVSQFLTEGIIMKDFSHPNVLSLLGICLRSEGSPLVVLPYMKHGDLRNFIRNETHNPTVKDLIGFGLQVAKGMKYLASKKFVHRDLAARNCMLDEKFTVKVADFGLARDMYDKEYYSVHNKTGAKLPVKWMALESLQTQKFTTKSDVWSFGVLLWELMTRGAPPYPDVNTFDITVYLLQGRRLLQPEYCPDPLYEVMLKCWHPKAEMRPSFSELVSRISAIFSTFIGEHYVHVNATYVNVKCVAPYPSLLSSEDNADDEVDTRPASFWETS

Question: Which median overall-survival (c-Met [1]) does the source give for `C#Cc1cccc(Nc2ncnc3cc(OCCOC)c(OCCOC)cc23)c1` [Erlotinib, reference compound] here?
Answer: 3.8 months

Question: For “MetMAb: a monoclonal antibody blocking c-Met (Roche)”, which “outcome, low c-Met expression” value (c-Met [1]; MetMAb in combination with Erlotinib compared to Erlotinib alone) is on record?
Answer: worse outcome

Question: And the median overall-survival (c-Met [1])?
Answer: 12.6 months

Question: What about the “outcome, patient group as a whole” value (c-Met [1]; patients with high and low c-Met expression, MetMAb+Erlotinib vs placebo+Erlotinib) of the same compound?
Answer: no differences between the two treatments

Question: What about the combined elimination half-life [2] of the same compound?
Answer: 190 to 288 h

Question: With “MetMab™ labelled with ^76Br or ^89Zr: anti-c-Met antibody (MetMab) labelled with 76Br or 89Zr for molecular imaging of c-Met” as the compound, how does the “tumour uptake and clearance” value (c-Met [3]) read?
Answer: rapid tumour uptake and slow clearance

Question: Which “median overall survival vs placebo and ECX” value (HGF; c-Met high tumours (>50% tumour cells positive)) does the source give for rilotumumab: HGF antibody (Amgen) here?
Answer: improved median overall survival

Question: And the “overall survival vs placebo and ECX” value (HGF; c-Met low tumours (≤50% positive))?
Answer: trend toward unfavourable overall survival
